In the test the target is T1, N(A2B2)A-avi-His (biotinylated at the avi tag).
T1 construct: also called biotinylated N(A2B2)A-avi-His
T1 chain: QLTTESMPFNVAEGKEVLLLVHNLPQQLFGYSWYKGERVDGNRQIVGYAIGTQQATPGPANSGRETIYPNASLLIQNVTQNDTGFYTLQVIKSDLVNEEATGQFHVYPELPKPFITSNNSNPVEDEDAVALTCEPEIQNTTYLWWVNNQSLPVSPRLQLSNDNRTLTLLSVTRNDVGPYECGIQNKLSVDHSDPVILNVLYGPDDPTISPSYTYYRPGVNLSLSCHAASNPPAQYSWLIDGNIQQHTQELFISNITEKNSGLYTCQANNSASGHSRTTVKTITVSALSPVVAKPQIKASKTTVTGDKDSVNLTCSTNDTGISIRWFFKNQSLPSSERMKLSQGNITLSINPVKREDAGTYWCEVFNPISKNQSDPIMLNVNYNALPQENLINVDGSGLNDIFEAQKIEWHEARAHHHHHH
Briefly: SPR, ProteOn, antigen on NLC chip, bispecific IgG as analyte. In general terms: In SPR one partner is held on a chip, and binding of the other changes the refractive index at the surface.

Method: About 2000, 1000, 500, and 250 RU of biotinylated N(A2B2)A-avi-His were immobilized on 4 channels of a Streptavidin-coated NLC chip in vertical orientation. As a control for non-specific binding, 2000 RU of biotinylated NA(B2)A-avi-His protein was immobilized on channel 5. For the determination of the affinity (KD) of the purified bispecific constructs, injection direction was changed to horizontal orientation. […] Buffer (PBST) was injected along the sixth channel to provide an “in-line” blank for referencing. Regeneration was performed with 10 mM glycine pH 1.5 for 20 s at 50 ul/min (vertical orientation).
Association rate constants (kon) and dissociation rate constants (koff) were calculated using a simple one-to-one Langmuir binding model in ProteOn Manager v3.1 software by simultaneously fitting the association and dissociation sensorgrams. The equilibrium dissociation constant (KD) was calculated as the ratio koff/kon.

B1: bispecific CEA (P005.102)-CD28 (SA Variant 15) 1+1 IgG (bispecific antibody)
heavy 1: EIVLTQSPATLSLSPGERATLSCRASSSVTYIHWYQQKPGQAPRSWIYATSNLASGIPARFSGSGSGTDFTLTISSLEPEDFAVYYCQHWSSKSPTFGQGTKLEIKSSASTKGPSVFPLAPSSKSTSGGTAALGCLVKDYFPEPVTVSWNSGALTSGVHTFPAVLQSSGLYSLSSVVTVPSSSLGTQTYICNVNHKPSNTKVDKKVEPKSCDKTHTCPPCPAPEAAGGPSVFLFPPKPKDTLMISRTPEVTCVVVDVSHEDPEVKFNWYVDGVEVHNAKTKPREEQYNSTYRVVSVLTVLHQDWLNGKEYKCKVSNKALGAPIEKTISKAKGQPREPQVCTLPPSRDELTKNQVSLSCAVKGFYPSDIAVEWESNGQPENNYKTTPPVLDSDGSFFLVSKLTVDKSRWQQGNVFSCSVMHEALHNHYTQKSLSLSP
light 1: EVQLLESGGGLVQPGGSLRLSCAASGFTFTDYYMNWVRQAPGKGLEWLGFIGNKANAYTTEYSASVKGRFTISRDKSKNTLYLQMNSLRAEDTATYYCTRDRGIRFQFDYWGQGTTVTVSSASVAAPSVFIFPPSDEQLKSGTASVVCLLNNFYPREAKVQWKVDNALQSGNSQESVTEQDSKDSTYSLSSTLTLSKADYEKHKVYACEVTHQGLSSPVTKSFNRGEC
heavy 2: not shown
light 2: not shown
notes: knob-into-hole, crossmab, PG-LALA
For orientation: Kd means the constant that tells how readily two partners part at equilibrium. Read a low Kd as tighter binding. In general, koff refers to the first-order rate constant of dissociation. Lower therefore signals a long-lived complex. What is called kon is the second-order rate constant of association. Consider B1, for which the Kd worked out at 0.2 nM, the koff came to 3.31e-05 s⁻¹ and the kon was found to be 160000 M⁻¹ s⁻¹.

B2: bispecific CEA (P001.177)-CD28 (SA Variant 15) 1+1 IgG (bispecific antibody)
heavy 1: EIVLTQSPATLSLSPGERATLSCRASSSVTYIHWYQQKPGQAPRSWIYATSNLASGIPARFSGSGSGTDFTLTISSLEPEDFAVYYCQHWSSKPPTFGQGTKLEIKSSASTKGPSVFPLAPSSKSTSGGTAALGCLVKDYFPEPVTVSWNSGALTSGVHTFPAVLQSSGLYSLSSVVTVPSSSLGTQTYICNVNHKPSNTKVDKKVEPKSCDKTHTCPPCPAPEAAGGPSVFLFPPKPKDTLMISRTPEVTCVVVDVSHEDPEVKFNWYVDGVEVHNAKTKPREEQYNSTYRVVSVLTVLHQDWLNGKEYKCKVSNKALGAPIEKTISKAKGQPREPQVCTLPPSRDELTKNQVSLSCAVKGFYPSDIAVEWESNGQPENNYKTTPPVLDSDGSFFLVSKLTVDKSRWQQGNVFSCSVMHEALHNHYTQKSLSLSP
light 1: EVQLLESGGGLVQPGGSLRLSCAASGFYFTDYYMNWVRQAPGKGLEWLGFISNKANAYTTEYSASVKGRFTISRDKSKNTLYLQMNSLRAEDTATYYCTRDRGLRFYFDYWGQGTTVTVSSASVAAPSVFIFPPSDEQLKSGTASVVCLLNNFYPREAKVQWKVDNALQSGNSQESVTEQDSKDSTYSLSSTLTLSKADYEKHKVYACEVTHQGLSSPVTKSFNRGEC
heavy 2: not shown
light 2: not shown
notes: as for B1
Molecule B2 displayed a Kd of 0.43 nM, a koff of 8.83e-05 s⁻¹ and a kon of 205000 M⁻¹ s⁻¹.

B3: bispecific CEA (A5H1EL1D)-CD28 (SA Variant 15) 1+1 IgG of Example 10.3 (bispecific antibody)
heavy 1: EVQLLESGGGLVQPGGSLRLSCAASGFTFTDYYMNWVRQAPGKGLEWLGFIGNKANAYTTEYSASVKGRFTISRDKSKNTLYLQMNSLRAEDTATYYCTRDRGLRFYFDYWGQGTTVTVSSASTKGPSVFPLAPSSKSTSGGTAALGCLVKDYFPEPVTVSWNSGALTSGVHTFPAVLQSSGLYSLSSVVTVPSSSLGTQTYICNVNHKPSNTKVDKKVEPKSCDKTHTCPPCPAPEAAGGPSVFLFPPKPKDTLMISRTPEVTCVVVDVSHEDPEVKFNWYVDGVEVHNAKTKPREEQYNSTYRVVSVLTVLHQDWLNGKEYKCKVSNKALGAPIEKTISKAKGQPREPQVCTLPPSRDELTKNQVSLSCAVKGFYPSDIAVEWESNGQPENNYKTTPPVLDSDGSFFLVSKLTVDKSRWQQGNVFSCSVMHEALHNHYTQKSLSLSP
light 1: EIVLTQSPATLSLSPGERATLSCRASSSVTYIHWYQQKPGQAPRSWIYATSNLASGIPARFSGSGSGTDFTLTISSLEPEDFAVYYCQHWSSKPPTFGQGTKLEIKRTVAAPSVFIFPPSDEQLKSGTASVVCLLNNFYPREAKVQWKVDNALQSGNSQESVTEQDSKDSTYSLSSTLTLSKADYEKHKVYACEVTHQGLSSPVTKSFNRGEC
heavy 2: not shown
light 2: not shown
notes: as for B1
Consider B3, for which the Kd is 2.11 nM, the koff was 0.000333 s⁻¹ and the kon was determined as 158000 M⁻¹ s⁻¹.

The record behind these values is patent publication US20230416365A1 (Hoffmann-La Roche, published 2023).
